Assay results taken from paper PMC5322562, “Dynamic regulation of GDP binding to G proteins revealed by magnetic field-dependent NMR relaxation analyses” (Nature Communications, 2017).

Target: human Gαi3 (residues 1–354), GDP-bound form (human, UniProt P08754 1-354)
Experiment: cell-based or functional assay

Sequence of human Gαi3 (residues 1–354), GDP-bound form (P08754 whole entry, the tested form may be a part): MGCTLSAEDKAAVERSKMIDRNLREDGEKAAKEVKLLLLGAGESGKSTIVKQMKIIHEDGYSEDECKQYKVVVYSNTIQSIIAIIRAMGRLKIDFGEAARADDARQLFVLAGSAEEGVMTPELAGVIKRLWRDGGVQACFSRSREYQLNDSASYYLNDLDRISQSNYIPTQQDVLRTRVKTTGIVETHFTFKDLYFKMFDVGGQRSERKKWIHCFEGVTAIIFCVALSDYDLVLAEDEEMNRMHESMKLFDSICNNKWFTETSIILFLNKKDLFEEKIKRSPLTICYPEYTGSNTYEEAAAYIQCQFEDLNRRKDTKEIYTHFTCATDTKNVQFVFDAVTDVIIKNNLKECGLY

IC50 of the inhibition of 3H-GDP dissociation from Gα-GDP (bound 3H-GDP after a 10 min incubation with 100 nM to 10 μM GoLoco14; 30 °C): 620 nM
Binder: GPLGSDIEGLVELLNRVQSSGAHDQRGLLRKEDLVLPEFLQ [GoLoco14 peptide (residues 496–531 of rat RGS14)]
